Experimental findings from PMC4929722 are described below.

In experiment [1] the target is BTas-B (bovine foamy virus transactivator Tas of clone pBS-BFV-B, N108) (bovine foamy virus (BFV3026)). In words: cross-linking; lysates of transfected HEK293T cells (20 mM Tris-Cl pH 7.5, 150 mM EDTA, 0.5 mM Na3VO4, 1 % NP-40) mixed with 0.01 % glutaraldehyde in 20 mM triethanolamine pH 8.2, 10 mM NaCl, 30 min at room temperature; 12 % SDS-PAGE and immunoblot with anti-BTas.

Experiment [2] concerns the target BTas-Y (bovine foamy virus transactivator Tas of clone pBS-BFV-Y, D108) (bovine foamy virus (BFV3026)). The experiment is described as above.

Usually stoichiometry N stands for the number of molecules, sites or subunits per partner or assembly. As for “BTas-B (bovine foamy virus transactivator Tas of clone pBS-BFV-B, N108) (natural protein)”, the stoichiometry N in experiment [1] turned out to be 2.
As for “BTas-Y (bovine foamy virus transactivator Tas of clone pBS-BFV-Y, D108) (natural protein)”, in experiment [2], the stoichiometry N is 2.
